From paper PMC10183053 (Journal of biomolecular structure & dynamics, 2022)
Read-outs that look alike come from different tables or passages of the source.

B1: human Hsp90α_293–714_W320A mutant (domain or fragment)
chain: not shown
B2: human Hsp90α_293–699 (wild type Hsp90α middle/C-terminal domain) (domain or fragment)
chain: not shown

Tests used:
crystal structure [1] = target: the molecule itself; assay: crystal structure
crystal structure [2] = target: the molecule itself; assay: crystal structure; remark: listed apart in the source

Row | Protein | stoichiometry N (crystal structure [1]) | stoichiometry N (crystal structure [2])
1 | B1 | 2 | –
2 | B2 | – | 6
